The target of the experiment is CHO derived N' FLAG-mNR6 (murine NR6 with an N-terminal FLAG sequence) (mouse) (UniProt Q9JM58). As to the kind of experiment: BiaCore biosensor, M2 on the sensorchip; concentrated CHO conditioned medium after M2 affinity column.
Chain of UniProt Q9JM58 (Q9JM58 other isoform, or with tags, fused parts or gaps limits assumed): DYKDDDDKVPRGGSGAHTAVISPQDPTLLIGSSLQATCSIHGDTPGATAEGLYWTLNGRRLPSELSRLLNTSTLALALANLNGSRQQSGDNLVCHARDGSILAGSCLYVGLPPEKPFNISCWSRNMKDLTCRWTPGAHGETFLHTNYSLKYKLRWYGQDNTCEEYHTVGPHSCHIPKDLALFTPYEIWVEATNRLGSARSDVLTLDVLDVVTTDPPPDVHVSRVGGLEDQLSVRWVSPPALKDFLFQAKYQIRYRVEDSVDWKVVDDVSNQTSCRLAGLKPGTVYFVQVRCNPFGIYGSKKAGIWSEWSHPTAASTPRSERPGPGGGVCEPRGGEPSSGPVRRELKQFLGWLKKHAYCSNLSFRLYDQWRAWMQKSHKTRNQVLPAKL

As for “anti FLAG peptide M2 antibody (Kodak Eastman, USA)”, the M2 binding remaining in the unbound fraction after M2 affinity resin was 20%.
